Assay results taken from article PMC9891525 (PLOS Pathogens, 2023).

B1: purified monoclonal antibody d7 (S97Y, D54I, N57H) (antibody, V domains shown)
VH: QVQLVESGGGVVQPGRSLRLSCAASGFTFSNYAMYWVRQAPGKGLEWVAVISYIGSHKYYADSVKGRFTISRDNSKNTLYLQMNSLRTEDTAVYYCASGSDYGDYLLVYWGQGTLVTVSS
VL: QSALTQPASVSGSPGQSITISCTGTSSDVGGYNYVSWYQQHPGKAPKLMIYDVSKRPSGVSNRFSGSKSGNTASLTISGLQSEDEADYYCNSLTSIYTWVFGGGTKLTVL
B2: purified monoclonal antibody d9 (S97Y, D54L, N57H) (antibody, V domains shown)
VH: QVQLVESGGGVVQPGRSLRLSCAASGFTFSNYAMYWVRQAPGKGLEWVAVISYLGSHKYYADSVKGRFTISRDNSKNTLYLQMNSLRTEDTAVYYCASGSDYGDYLLVYWGQGTLVTVSS
VL: QSALTQPASVSGSPGQSITISCTGTSSDVGGYNYVSWYQQHPGKAPKLMIYDVSKRPSGVSNRFSGSKSGNTASLTISGLQSEDEADYYCNSLTSIYTWVFGGGTKLTVL
B3: purified monoclonal antibody A3 (N57A, L106N) (antibody, V domains shown)
VH: QVQLVESGGGVVQPGRSLRLSCAASGFTFSNYAMYWVRQAPGKGLEWVAVISYDGSAKYYADSVKGRFTISRDNSKNTLYLQMNSLRTEDTAVYYCASGSDYGDYNLVYWGQGTLVTVSS
VL: QSALTQPASVSGSPGQSITISCTGTSSDVGGYNYVSWYQQHPGKAPKLMIYDVSKRPSGVSNRFSGSKSGNTASLTISGLQSEDEADYYCNSLTSISTWVFGGGTKLTVL

These binders were tested against SARS-CoV-2 WT spike RBD (SARS-CoV-2, wild type, UniProt P0DTC2) (assay: SPR; Biacore 2000; […]; 45 μL/min, 180 s binding, […] dissociation; 1:1 binding model). Conditions: both partners purified.
With B1 the Kd was 0.15 nM and the other was 3 times. Binder B2 has a Kd of 0.17 nM and an other of 3 times. With B3 the Kd was 0.17 nM and the other was 3 times.
